{"source": "paper PMC8093518", "about": "“PprA Protein Inhibits DNA Strand Exchange and ATP Hydrolysis of Deinococcus RecA and Regulates the Recombination in Gamma-Irradiated Cells” (Frontiers in Cell and Developmental Biology, 2021)", "binders": {"B1": {"name": "Recombinant PprA, wild type, purified (natural protein, D. radiodurans, UniProt O32504 1-300, looked up)", "chain": "MLPLAFLICSGHNKGSMARAKAKDQTDGIYAAFDTLMSTAGVDSQIAALAASEADAGTLDAALTQSLQEAQGRWGLGLHHLRHEARLTDDGDIEILTDGRPSARVSEGFGALAQAYAPMQALDERGLSQWAALGEGYRAPGDLPLAQLKVLIEHARDFETDWSAGRGETFQRVWRKGDTLFVEVARPASAEAALSDAAWDVIASIKDRAFQRELMRRSEKDGMLGALLGARHAGAKANLAQLPEAHFTVQAFVQTLSGAAARNAEEYRAALKTAAAALEEYQGVTTRQLSEVLRHGLRES", "notes": "PprA of Deinococcus radiodurans, from plasmid pETpprA constructed earlier (Rajpurohit and Misra, 2013); His tag removed with Factor-Xa; also called PprA^wt; pETpprA; source: E. coli BL21(DE3) pLysS, purified (Ni-chelating Sepharose, Q-sepharose, Heparin, Superdex-200)"}, "B2": {"name": "PprA R166A mutant (natural protein, D. radiodurans, UniProt O32504 1-300, looked up)", "chain": "MLPLAFLICSGHNKGSMARAKAKDQTDGIYAAFDTLMSTAGVDSQIAALAASEADAGTLDAALTQSLQEAQGRWGLGLHHLRHEARLTDDGDIEILTDGRPSARVSEGFGALAQAYAPMQALDERGLSQWAALGEGYRAPGDLPLAQLKVLIEHARDFETDWSAGAGETFQRVWRKGDTLFVEVARPASAEAALSDAAWDVIASIKDRAFQRELMRRSEKDGMLGALLGARHAGAKANLAQLPEAHFTVQAFVQTLSGAAARNAEEYRAALKTAAAALEEYQGVTTRQLSEVLRHGLRES", "notes": "PprA of Deinococcus radiodurans with R166A, made with a site-directed mutagenesis kit"}, "B3": {"name": "PprA R212A mutant (natural protein, D. radiodurans, UniProt O32504 1-300, looked up)", "chain": "MLPLAFLICSGHNKGSMARAKAKDQTDGIYAAFDTLMSTAGVDSQIAALAASEADAGTLDAALTQSLQEAQGRWGLGLHHLRHEARLTDDGDIEILTDGRPSARVSEGFGALAQAYAPMQALDERGLSQWAALGEGYRAPGDLPLAQLKVLIEHARDFETDWSAGRGETFQRVWRKGDTLFVEVARPASAEAALSDAAWDVIASIKDRAFQAELMRRSEKDGMLGALLGARHAGAKANLAQLPEAHFTVQAFVQTLSGAAARNAEEYRAALKTAAAALEEYQGVTTRQLSEVLRHGLRES", "notes": "PprA of Deinococcus radiodurans with R212A, made with a site-directed mutagenesis kit; also called oligomer mutant"}, "B4": {"name": "Oligo40-F 40-mer ssDNA (ssDNA)", "DNA": "TAATACAAAATAAGTAAATGAATAAACAGAGAAAATAAAG"}, "B5": {"name": "Oligo40-F/Oligo40-R 40-mer dsDNA (dsDNA)", "DNA 1": "TAATACAAAATAAGTAAATGAATAAACAGAGAAAATAAAG", "DNA 2": "CTTTATTTTCTCTGTTTATTCATTTACTTATTTTGTATTA"}}, "key": {"[1]": {"target": "T1, Recombinant DrRecA, purified (D. radiodurans, UniProt P42443 1-363)", "T1 construct": "RecA of Deinococcus radiodurans, from plasmid pETrecA constructed earlier (Rajpurohit et al., 2016); His tag removed with Factor-Xa; also called pETrecA; source: E. coli BL21(DE3) pLysS, purified (Ni-chelating Sepharose, Q-sepharose, Heparin, Superdex-200)", "T1 sequence (looked up)": "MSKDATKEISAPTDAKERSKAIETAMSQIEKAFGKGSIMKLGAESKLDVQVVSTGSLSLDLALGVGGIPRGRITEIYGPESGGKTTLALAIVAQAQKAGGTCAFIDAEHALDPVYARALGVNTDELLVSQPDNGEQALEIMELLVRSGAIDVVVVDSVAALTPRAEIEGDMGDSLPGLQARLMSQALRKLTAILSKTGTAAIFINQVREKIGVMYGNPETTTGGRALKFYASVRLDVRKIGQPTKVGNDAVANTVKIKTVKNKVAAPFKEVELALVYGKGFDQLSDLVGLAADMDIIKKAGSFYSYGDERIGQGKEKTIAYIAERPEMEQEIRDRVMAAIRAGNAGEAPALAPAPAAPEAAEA", "experiment": "cross-linking; both proteins (approx. 5 μg each) mixed in HEPES buffer pH 7.6 for 10 min, 0.5% glutaraldehyde for 10 min, SDS-PAGE; with or without 1 kb dsDNA, DNase treatment", "settings": "both partners purified"}, "PprA [2]": {"target": "T2, PprA (Deinococcus radiodurans R1 (ATCC 13939), UniProt O32504 1-300)", "T2 sequence": "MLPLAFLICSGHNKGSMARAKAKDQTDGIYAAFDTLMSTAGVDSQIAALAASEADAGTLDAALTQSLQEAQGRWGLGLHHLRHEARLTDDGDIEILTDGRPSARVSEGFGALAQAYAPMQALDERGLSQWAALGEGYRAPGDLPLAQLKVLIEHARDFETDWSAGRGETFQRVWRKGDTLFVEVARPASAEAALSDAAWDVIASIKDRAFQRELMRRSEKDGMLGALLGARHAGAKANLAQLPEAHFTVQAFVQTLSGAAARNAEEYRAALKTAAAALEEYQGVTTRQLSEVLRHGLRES", "experiment": "EMSA; PprA 2 ug; EMSA: 0.2 pmol 32P probe in 10 ul, 10 mM Tris-HCl pH 7.5, 50 mM NaCl, 1 mM DTT, 10 min, 37 C; 12.5% native PAGE", "settings": "protein: recombinant; tags: His-tag removed with Factor Xa (pET28a); label: 32P (polynucleotide kinase, 5' end)"}, "DrRecA": {"target": "T3, DrRecA (Deinococcus radiodurans R1 (ATCC 13939), UniProt P42443 1-363)", "T3 sequence": "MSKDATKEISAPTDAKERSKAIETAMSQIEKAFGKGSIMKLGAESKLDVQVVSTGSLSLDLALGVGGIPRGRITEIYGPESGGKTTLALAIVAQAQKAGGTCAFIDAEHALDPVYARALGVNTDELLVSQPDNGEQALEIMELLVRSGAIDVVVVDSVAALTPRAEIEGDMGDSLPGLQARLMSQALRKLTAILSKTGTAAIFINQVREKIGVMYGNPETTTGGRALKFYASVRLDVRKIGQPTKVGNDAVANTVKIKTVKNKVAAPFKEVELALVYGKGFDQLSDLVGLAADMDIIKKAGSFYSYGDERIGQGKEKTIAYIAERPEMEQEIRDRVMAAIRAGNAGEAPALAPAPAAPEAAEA", "experiment": "EMSA; no PprA; DrRecA 0.5-2 ug; EMSA: 0.2 pmol 32P probe in 10 ul, 10 mM Tris-HCl pH 7.5, 50 mM NaCl, 1 mM DTT, 10 min, 37 C; 12.5% native PAGE", "settings": "protein: recombinant, tags: His-tag removed with Factor Xa (pET28a), label: 32P (polynucleotide kinase, 5' end)"}, "PprA [3]": {"target": "T2, PprA", "experiment": "EMSA; PprA 2 ug; band distinct from DrRecA-DNA; EMSA: 0.2 pmol 32P probe in 10 ul, 10 mM Tris-HCl pH 7.5, 50 mM NaCl, 1 mM DTT, 10 min, 37 C; 12.5% native PAGE", "settings": "protein: recombinant; tags: His-tag removed with Factor Xa (pET28a); label: 32P (polynucleotide kinase, 5' end); blunt"}}}
{"binder": "B1", "values": [{"measurement": "binding result", "setting": "[1]", "value": "binds"}]}
{"binder": "B2", "values": [{"measurement": "binding result", "setting": "[1]", "value": "binds"}]}
{"binder": "B3", "values": [{"measurement": "binding result", "setting": "[1]", "value": "binds"}]}
{"binder": "B4", "values": [{"measurement": "binding result", "setting": "PprA [2]", "value": "no binding"}, {"measurement": "binding result", "setting": "DrRecA", "value": "binds"}]}
{"binder": "B5", "values": [{"measurement": "binding result", "setting": "DrRecA; blunt", "value": "binds"}, {"measurement": "binding result", "setting": "PprA [3]", "value": "binds"}]}
